Experimental data as given in a protein production outcome set (Wang et al. 2014).

Assay: label from the status in PepcDB records
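Note: failed if final PepcDB status was selected cloned or expressed and not failed if soluble or beyond.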

Sequence | protein production
MDRPETIAVKCEPMTVDSPSRPLKLVVLADLNFNPPETDDLDSSIPIPTPPPITRLSNEESHQEGGILTCKEVEPGEVEAKKISKVGKCRSRSKIESSSDCGVDADGDLANQGVPASREEKISNLKMGLIHVARKMPKNAHAHFILGLMFQRLGQSQKAIPEYEKAEEILLGCEPEIARPELLLLVQIHHGQCLLLDGFGDTDSVKELEGEELEEILSKLKDSIKLDVRQAAVWNTLGLMLLKAGCLMSAISVLSSLLALVPDNYDCLANLGVAYLQSGDMELSAKCFQDLVLKDHNHPAALINYAAELLCKHSSTVAGAGANGGADASEDQKAPMNVAKECLLAALRSDPKSAHAWVNLANSYYMMGDHRSSSKCLEKAAKLDPNCMATRFAVAVQRIKDAERSQDASDQLSWAGNEMASVIREGESVPIDPPIAWAGLAMAHKAQHEIAAAFVADRNELTEMEERAVYSLKQAVTEDPEDAVRWHQLGLHSLCSQQYKLSQKYLKAAVGRSRECSYAWSNLGISLQLSDEHSEAEEVYKRALTVSKEDQAHAILSNLGNLYRQKKQYEVSKAMFSKALELKPGYAPAYNNLGLVFVAERRWEEAKSCFEKSLEADSLLDAAQSNLLKATTMSRLCTCFSSSTVVRDS | failed
MPVSLYSGKVALRLLLLQLVTFALLSAVFSLNSVNAAASALGGGLAAWLPNVLFVLFALRHQSHKPADGRVAWSFAIGEALKVFITIALLVVALGVFKAAFFPLGLTYLSVLVMQIVAPIVINRYRN | failed
ALQAGRLGSTVFVANLDYKVGWKKLKEVFSMAGVVVRADILEDKDGKSRGIGTVTFEQSIEAVQAISMFNGQLLFDRPMHVKMDERALPKGDFFPPERPQQ | not failed
MNTEPANVEDKLPMNILVLGSDEKQGGRSDTIMLVHIQKDFQPIVISIPRDTRVKVEGIKGYSKINAAYAYGKSKLAVKTVEDILGIKIDKYVVVNYEAVEKIVDLVGGVDVEVPFHLYYVDTTPGKELYINIPAGLQHLDGKKAVEFLRWRHNSNGKEYGRGGDLGRIEMQRKLLYALIEKMLKPQNIVRLPLIVQTVSKYTDHNFTKNEIMWFIQNVGKFNTQNIMMTILPGYPKYIDRVSYYILNEEKCRALIDDLNEPEVLKDSMKIKILSKSFDDKATQLKNDLESKGYSNVNLGRVSKLESSEVELKRVNRKYLELLKNDIDLSTYQVVYSPDYSDKFDVYIKVKLEHHHHHH | not failed
MTLEIRPAVPADAEQILAFIIELADYERARHEVVTDVEGIRRSLFAEGSPTRALMCLSEGRPIGYAVYFYSYSTWLGRNGIYLEDLYVTPEYRGVGAGRRLLRELAREAVANDCGRLEWSVLDWNQPAIDFYRSIGALPQDEWVRYRLDGEALRKMAE | not failed
MDDETLRLQFGHLIRILPTLLEFEKKGYEPSLAEIVKASGVSEKTFFMGLKDRLIRAGLVKEETLSYRVKTLKLTEKGRRLAECLEKCRDVLGS | not failed
MATNLKSTAKLVKPIQYDEVIEVERIFADPAFIEQHRQRILASFKDAKESALYHELTHIVIKDNLFSCAMNAIVGYFEFNIDEAELKNVMEGLKRDVIQGAEDNTVQAIAEKIIKKALVFNHLQKEWKVEITDEVVKNVISLYYEKTNQSVREYLDDKQKFEGVRTALLEERMVLETINHFKFHFNLTGQLPN | not failed
SANSGCKDVTGPDEESFLYFAYGSNLLTERIHLRNPSAAFFCVARLQDFKLDFGNSQGKTSQTWHGGIATIFQSPGDEVWGVVWKMNKSNLNSLDEQEGVKSGMYVVIEVKVATQEGKEITCRSYLMTNYESAPPSPQYKKIICMGAKENGLPLEYQEKLKAIEPNDYTGKVSEEIEDIIKKGETQTL | not failed
MEELFCIGCGIQIQTEDKEKAGFTPAAALKKGMETGELYCQRCFRLRHYNEITDVHITDDEFLRLLHEVGDSDALVVNVIDIFDFNGSIIPGLSRFISGNDVLLVGNKKDILPKSVKDGKVTQWLTERAHEEGLRPLDVMLTSAQNKYAIKDLIGRINELRNGRDVYVVGVTNVGKSTLINAIIQEITGNKDVITTSRFPGTTLDKIEIPLDDGTFIFDTPGIIHRHQMAHYLSPKELKIVSPKKEIKPKTYQLNPEQTLFLGGLARFDFINGERQGFTAFFDNQLELHRTKLAGADAFYDKHVGTLLTPPDKKELTAFPKLVRHEFTIDQKMDIVFSGLGWIRVNGQKDSKAIVAAWAPEGVAVIVRKAIILEHHHHHH | not failed
MNSLPIADLLVSAVIAACIVLSAMRGVIAEAGSMAAWVVSFFFAKLFAASFADLAFASFQPRLFALALSFISLFVIACLIQKMLRSLLTSAVSAVGLGFANRILGGVFGALKGVLIVTLLVMLASKTDLPDTEEWRQSYTLPFFVSLSEAVLNHSGGTAETPEDD | failed
MERDGCAGGGSRGGEGGRAPREGPAGNGRDRGRSHAAEAPGDPQAAASLLAPMDVGEEPLEKAARARTAKDPNTYKVLSLVLSVCVLTTILGCIFGLKPSCAKEVKSCKGRCFERTFGNCRCDAACVELGNCCLDYQETCIEPEHIWTCNKFRCGEKRLTRSLCACSDDCKDKGDCCINYSSVCQGEKSWVEEPCESINEPQCPAGFETPPTLLFSLDGFRAEYLHTWGGLLPVISKLKKCGTYTKNMRPVYPTKTFPNHYSIVTGLYPESHGIIDNKMYDPKMNASFSLKSKEKFNPEWYKGEPIWVTAKYQGLKSGTFFWPGSDVEINGIFPDIYKMYNGSVPFEERILAVLQWLQLPKDERPHFYTLYLEEPDSSGHSYGPVSSEVIKALQRVDGMVGMLMDGLKELNLHRCLNLILISDHGMEQGSCKKYIYLNKYLGDVKNIKVIYGPAARLRPSDVPDKYYSFNYEGIARNLSCREPNQHFKPYLKHFLPKRLHFAKSDRIEPLTFYLDPQWQLALNPSERKYCGSGFHGSDNVFSNMQALFVGYGPGFKHGIEADTFENIEVYNLMCDLLNLTPAPNNGTHGSLNHLLKNPVYTPKHPKEVHPLVQCPFTRNPRDNLGCSCNPSILPIEDFQTQFNLTVAEEKIIKHETLPYGRPRVLQKENTICLLSQHQFMSGYSQDILMPLWTSYTVDRNDSFSTEDFSNCLYQDFRIPLSPVHKCSFYKNNTKVSYGFLSPPQLNKNSSGIYSEALLTTNIVPMYQSFQVIWRYFHDTLLRKYAEERNGVNVVSGPVFDFDYDGRCDSLENLRQKRRVIRNQEILIPTHFFIVLTSCKDTSQTPLHCENLDTLAFILPHRTDNSESCVHGKHDSSWVEELLMLHRARITDVEHITGLSFYQQRKEPVSDILKLKTHLPTFSQED | failed
MMASYLSTPSVSYSMKSYDPVKVLYTVIISLVSLYTLYITSAFFYVLILSALFAYIIHPVYFFCIRFVKSKQICALIPLGTIFLITLASGVMIVKALMNEISRILEIPNTINGFANMDLRRIVGLFEPLIQTHPGKLTESIGAYLNSLVTDYVPQIQNNIFQISTGLSILIIELIVIVVLTYYLLVESETIATELPNLFPDRKVGVVFLGELNYIYQNLFIVYFLTCLITGIIGGVLYWALGVPYSLIWGILTFIMALLPVVGAGTVYGLLALYYVLIDDFFTAGALIFLGIVFLSIIPDFIMRPRFARNRAAIHPAITLVAFAAPVFVLGPIGIIIGPLTYGFLLAAFRTRKILGTSSAQTESSAAGSPEDLVGSQREKSDESPVGRSVERPVKASGERSRSGN | failed
KKKSIPQPTNALKSFNWSKLPENKLEGTVWTEIDDTKVFKILDLEDLERTFSAYQRQQDFFVNSNSKQKEADAIDDTLSSKLKVKELSVIDGRRAQNCNILLSRLKLSNDEIKRAILTMDEQEDLPKDMLEQLLKFVPEKSDIDLLEEHKHELDRMAKADRFLFEMSRINHYQQRLQSLYFKKKFAERVAEVKPKVEAIRSGSEEVFRSGALKQLLEVVLAFGNYMNKGQRGNAYGFKISSLNKIADTKSSIDKNITLLHYLITIVENKYPSVLNLNEELRDIPQAAKVN | failed
MNIALARSVVGERLRLLAERMGLVAKRLQDMSQDDTPGRCTPEHCAIQVDSDDEIGDGARAFNQLIQALSLSIETETAVRTFTEMLVSELDVHQLTEQALALLLQHTGADGGAILIEVDGEIRVAASQGIGSAHTLANNDRVRSALRTERRHRVQLPEDLVVDGMLAQFRPKEVIIDPVRHKEVVLGAVVLASGQGFSAEDRNRLDVFERGLALALHNALLYDRLQTLAALDPLTGAYNRRFGMARLREEFRRAVRLNLPLGILMFDIDYFKRINDTYGHLAGDRVLSRVAKTARSVLREGDVLIRYGGEEFIAVLPAASLHDLEYVGERLRHQVDDLMLMDGDQSMHVTVSIGAAAYPDTDVEDETALVDRADKALYAAKSDGRNRLVIS | failed
MALMQELYSTPASRLDSFVAQWLQPHREWKEEVLDAVRTVEEFLRQEHFQGKRGLDQDVRVLKVVKVGSFGNGTVLRSTREVELVAFLSCFHSFQEAAKHHKDVLRLIWKTMWQSQDLLDLGLEDLRMEQRVPDALVFTIQTRGTAEPITVTIVPAYRALGPSLPNSQPPPEVYVSLIKACGGPGNFCPSFSELQRNFVKHRPTKLKSLLRLVKHWYQQYVKARSPRANLPPLYALELLTIYAWEMGTEEDENFMLDEGFTTVMDLLLEYEVICIYWTKYYTLHNAIIEDCVRKQLKKERPIILDPADPTLNVAEGYRWDIVAQRASQCLKQDCCYDNRENPISSWNVKRARDIHLTVEQRGYPDFNLIVNPYEPIRKVKEKIRRTRGYSGLQRLSFQVPGSERQLLSSRCSLAKYGIFSHTHIYLLETIPSEIQVFVKNPDGGSYAYAINPNSFILGLKQQIEDQQGLPKKQQQLEFQGQVLQDWLGLGIYGIQDSDTLILSKKKGEALFPAS | failed
MGDPQVNDTLAPSARHEGDALASAVAKVKRHVLPLFVIMFIVNYLDRVNIGFVRPHLESDLGISAAAYGFGAGLFFIGYALFEVPSNMLLQKVGARLWLTRIMFTWGLVATAMAFVQNETQFYVLRFLLGVAEAGFFPGVIYYFTRWLPAAERGKAIAIFLSGSALASLISGPLAGALMQIQGLGLHGWQWMLFIEGMASVALCFFVFFWLDSKPQDAKWLSKAEQDALVATIDREQQAREAIGAVRPSAWNLLKDRQIVLFCLIYFCIQLTIYAATFWLPSIIKRMGDLSDMQVGFFNSIPWLISILAMYAFAAGSARWKFQQAWVAGALLVAATGMFMSTTGGPVFAFVAVCFAAIGFKSASSLFWPIPQGYLDARIAAAVIALINSVGNLGGFVAPTTFGLLEQQTGSIQGGLYGLAVTSVLAAIAIFFVRTRPKGAPSDDLKAPSALGQTH | failed
VKRKGVEVIIALDISNSMLAQDVQPSRLEKAKRLISRLVDELDNDKVGMIVFAGDAFTQLPITSDYISAKMFLESISPSLISKQGTAIGEAINLATRSFTPQEGVGRAIIVITDGENHEGGAVEAAKAAAEKGIQVSVLGVGMPEGAPIPVEGTNDYRRDREGNVIVTRLNEGMCQEIAKDGKGIYVRVDNSNSAQKAISQEISKMAKSDVE | not failed
MAPRQLAAADLAVGQVVAQREIRLDAQAFAQFAALTGDAHPIHYDAGYVQRQGLRAPIAHGLLLVAISALGATPLSAQLHDAMVAMVGVEAVFMRPVYVDETVQCVYRVAQIEHVAKGRSKTTIAVSIHTTDAPPDAARQAHCVVHLTFLLKTHLQGLEHHHHHH | failed
MQNLSLQKALKKPEVKTLLQQLGDSLGKNFAIFDIGGHCLWGKAQDSQPKVDIYCHQVLMGTITGEFTEHSAEAIAAMLSYIVQTEYEKKQLAKDTLQKYEEVVFLSQFANAVATCTGLQELIEVIRAEIRQVISVDEIFLYLYDQSQDSLTPLLYKTEESLQNFKAIEKIVERVLKLNQVEVIDDIQNDQDYLNQPSKIRSLLCYSLTVQNSIIGVLGLAHYQVKHFDSSDLNLFSTLTGQVAAAIRTAQYYETIKNYSQTLEIRVKERTMELEFAKQQLEQVNQRLKHLAIYDELTQIPNRRYFTSYLEQEWRQCLRQKSPISLILCDVDYFKNYNDLYGHQMGDKCLQSVAKVIQNALKRPSDVLARYGGEEFIVILPYTDQSGAYTVGQRIHHCLAEAQISHADSPTSRYLTISLGIGTTVPLLHYHPSDLIKIADQALYAAKAAGRNQTKLKTLSFQCS | failed
